The target in one experiment is HLA-B*07:02 (Homo sapiens, UniProt P01889). In words: HLA class I immunoprecipitation peptide elution and tandem Mass Spec (MS/MS), monoallelic K562 RAS TMG cell lines. Set-up: expressed in transfected cells; host or cells: K562, lentiviral HLA construct plus RAS tandem minigene construct. The note with it: B*07:02-restricted; antigen processing/presentation. It counts as cell-based. From the text:
(§1) Additional antigen processing and presentation studies were done using mass spectrometry. First, monoallelic K562 cell lines were created to express specific HLA types (FIG. 7A). Further, lentiviral constructs expressing various wt RAS and mRAS peptides were generated (FIG. 7E). Monoallelic cell lines that express specific HLA types and the various RAS and mRAS peptides were then created. The expression of HLA class I and HLA-specific expression of RAS TMG cells lines were verified by FACS (FIG. 7C and FIG. 7D).
(§2) Further, novel epitopes are identified for HLA-B*07:02.

Experiment [1] addresses T1, HLA-A*11:01 (Homo sapiens, UniProt P04439, A114D/D185E/E176A/F33Y/L180Q/S129P/T187R). The experiment in a line: Competitive peptide binding fluorescence polarization assay. The note with it: peptide-MHC binding; strong binding affinity indicated by log[IC50]<3.7 (FIG. 6A). The protocol: (§3) Experiments were also conducted to examine peptide-MHC binding.
Experiment [2] has as its target T1, HLA-A*11:01. In words: HLA class I immunoprecipitation peptide elution and tandem Mass Spec (MS/MS), monoallelic K562 RAS TMG cell lines. It is filed as cell-based. Also noted: expressed in transfected cells; host or cells: K562, lentiviral HLA construct plus RAS tandem minigene construct. The following applies: A*11:01-restricted; antigen processing/presentation.
Text: as §1, §2

Experiment [3] has as its target T2, HLA-A*03:01 (Homo sapiens, UniProt P04439). The description is as above. It is filed as cell-based. Set-up: expressed in transfected cells; host or cells: K562, lentiviral HLA construct plus RAS tandem minigene construct. The following applies: A*03:01-restricted; antigen processing/presentation.
Text: as §1, §2

The target in experiment [4] is T2, HLA-A*03:01. In words: Competitive peptide binding fluorescence polarization assay. The following applies: peptide-MHC binding; strong binding affinity indicated by log[IC50]<3.7 (FIG. 6A). The method, then:
as §3

Another experiment has as its system wildtype RAS epitope. The experiment in a line: Jurkat Reporter assay of TCR specificity and cross-reactivity. It is filed as cell-based. The note with it: Jurkat Reporter cells; HLA-B*07:02-restricted TCR. The protocol:
The validation of TCR831 expression by peptide-MHC multimer staining of lentiviral-transduced Jurkat Reporter cells is shown in FIG. 25A. Experiments were conducted to examine TCR831 avidity by Jurkat Reporter cells (FIG. 25B). Experiments were also conducted to assess TCR831 specificity and cross-reactivity to alternative mutant RAS epitopes by Jurkat Reporter assay. […] depicts TCR activation of Jurkat Reporter cells following coculture with A*11:01 positive RAS G12V tumor cell lines. FIG. 25E depicts the expression of TCR831 on primary CD8+ T cells. […] Cell line coloring corresponds to that in FIG. 25D.
Experiments were also conducted to further characterize the expression and function of TCR833. The validation of TCR833 expression by peptide-MHC multimer staining of lentiviral-transduced Jurkat Reporter cells is shown in FIG. 26A. FIG. 26B depicts the results of experiments assessing TCR833 avidity by Jurkat Reporter cells. Experiments were also conducted to assess TCR833 specificity and cross-reactivity to alternative mutant RAS epitopes by Jurkat Reporter assay. […] FIG. 26D depicts TCR833 activation of Jurkat Reporter cells following coculture with A*11:01 positive RAS G12V tumor cell lines.
Further experiments were conducted to characterize TCR897 expression and function. TCR897 expression was validated by peptide-MHC multimer staining of lentiviral-transduced Jurkat Reporter cells, as shown in FIG. 27A. FIG. 27B depicts the results of experiments assessing TCR897 avidity by Jurkat Reporter cells. Experiments were conducted to assess TCR897 specificity and cross-reactivity to alternative mutant RAS epitopes by Jurkat Reporter assay.
(§4) Further experiments were conducted to characterize TCR896 expression and function. TCR896 expression was validated by peptide-MHC multimer staining of lentiviral-transduced Jurkat Reporter cells, as shown in FIG. 28A. FIG. 28B depicts the results of experiments assessing TCR896 avidity by Jurkat Reporter cells. Experiments were conducted assessing TCR specificity and cross-reactivity to alternative mutant RAS epitopes by Jurkat Reporter assay. […] FIG. 28D depicts TCR activation of Jurkat Reporter cells following coculture with A*03:01 positive RAS G12V tumor cell lines.
(§5) Further experiments were done to characterize TCR847 expression and function. TCR847 expression was validated by peptide-MHC multimer staining of lentiviral-transduced Jurkat Reporter cells, as shown in FIG. 29A. FIG. 29B depicts the results of experiments assessing TCR specificity and cross-reactivity to alternative mutant RAS epitopes by Jurkat Reporter assay.
(§6) Further experiments were conducted to characterize TCR864 expression and function. TCR864 expression was validated by peptide-MHC multimer staining of lentiviral-transduced Jurkat Reporter cells, as shown in FIG. 30A. FIG. 30B depicts the results of experiments assessing TCR864 avidity by Jurkat Reporter cells. Experiments were conducted to examine TCR864 specificity and cross-reactivity to alternative mutant RAS epitopes by Jurkat Reporter assay. […] The expression of TCR864 on primary CD8+ T cells is depicted in FIG. 30D.

For the next experiment, the target named is RAS G12R (GA_R) (Homo sapiens, UniProt P01116+P01889, G12R). The description is as above. It counts as cell-based. The note with it: Jurkat Reporter cells. The protocol:
as §5, §6

Experiment [5] concerns alternatively mutated RAS epitopes. The description is as above. It counts as cell-based. The following applies: Jurkat Reporter cells; HLA-B*07:02-restricted TCR. The method, then: as §4, §5, §6

As to “GADGVGKSAL (GA_D) [mRAS peptide, G12D, HLA-B*07:02]”, the “detection of mRAS epitope by HLA class I immunoprecipitation peptide elution and MS/MS” value (from here on “detection of mRAS epitope”) in the experiment with HLA-B*07:02 is “identified new epitopes”.
Regarding VVGACGVGK [VV_C], the “binding affinity of mRAS neoepitope for HLA-A*11:01” value (“binding affinity … for HLA-A*11:01” below) in the experiment with HLA-A*11:01 [1] is “high binding affinity”.
Consider VVGADGVGK [VV_D], for which the “binding affinity … for HLA-A*11:01” value with HLA-A*11:01 [1] is given as “high binding affinity”. Also, the “detection of mRAS epitope” value with HLA-A*11:01 [2] is given as “detection”.
For the molecule “VVGARGVGK (VV_R) [mRAS peptide, G12R, HLA-A*03:01 and HLA-A*11:01]”, the “binding affinity … for HLA-A*11:01” value with HLA-A*11:01 [1] was “high binding affinity”. Besides, the “detection of mRAS epitope” value with HLA-A*11:01 [2] and with HLA-A*03:01 [3] was “detection” throughout.
Take VVVGADGVGK [VVV_D]: the “binding affinity … for HLA-A*11:01” value with HLA-A*11:01 [1] is reported as “high binding affinity”. In addition, the “detection of mRAS epitope” value in the experiment with HLA-A*11:01 [2] and in the experiment with HLA-A*03:01 [3] was “detection” each time.
As for “VVVGARGVGK (VVV_R) [mRAS peptide, G12R, HLA-A*03:01 and HLA-A*11:01]”, the “binding affinity … for HLA-A*11:01” value with HLA-A*11:01 [1] is given as “high binding affinity”. The “binding affinity of mRAS neoepitope for HLA-A*03:01” value with HLA-A*03:01 [4] is recorded as “high binding affinity”.
With VVVGAVGVGK [VVV_V], the “binding affinity … for HLA-A*11:01” value with HLA-A*11:01 [1] is given as “high binding affinity”. The “binding affinity of mRAS neoepitope for HLA-A*03:01” value with HLA-A*03:01 [4] is “high binding affinity”. Moreover, the “detection of mRAS epitope” value in the experiment with HLA-A*11:01 [2] and with HLA-A*03:01 [3] was “detection” in each case.

B1: TCR847: TCR construct, TRAV17 and TRBV10-3; fusion protein SEQ ID NO: 80; HLA-B*07:02 (protein)
chain: METLLGVSLVILWLQLARVNSQQGEEDPQALSIQEGENATMNCSYKTSINNLQWYRQNSGRGLVHLILIRSNEREKHSGRLRVTLDTSKKSSSLLITASRAADTASYFCATFPNFGNEKLTFGTGTRLTIIPNIQNPDPAVYQLRDSKSSDKSVCLFTDFDSQTNVSQSKDSDVYITDKTVLDMRSMDFKSNSAVAWSNKSDFACANAFNNSIIPEDTFFPSPESSCDVKLVEKSFETDTNLNFQNLSVIGFRILLLKVAGFNLLMTLRLWSSGSGEGRGSLLTCGDVEENPGPMGTRLFFYVALCLLWTGHMDAGITQSPRHKVTETGTPVTLRCHQTENHRYMYWYRQDPGHGLRLIHYSYGVKDTDKGEVSDGYSVSRSKTEDFLLTLESATSSQTSVYFCAISESERYYEQYFGPGTRLTVTEDLKNVFPPEVAVFEPSEAEISHTQKATLVCLATGFYPDHVELSWWVNGKEVHSGVSTDPQPLKEQPALNDSRYCLSSRLRVSATFWQNPRNHFRCQVQFYGLSENDEWTQDRAKPVTQIVSAEAWGRADCGFTSESYQQGVLSATILYEILLGKATLYAVLVSALVLMAMVKRKDSRG
modifications: TCR847 FUSION
notes: TCR construct, TRAV17 and TRBV10-3; HLA-B*07:02
Regarding B1, the reactivity to wildtype entry with wildtype RAS epitope is “not wildtype”. Moreover, the “specificity for RAS G12R (GA_R)” value in the experiment with RAS G12R (GA_R) was “exhibits specificity”. Besides, the “reactivity to alternatively mutated RAS epitopes” value in experiment [5] is on record as “not wildtype or alternatively mutated”.

The record behind these values is US12533409B2, “Compositions and methods for targeting mutant RAS” (The Trustees of the University of Pennsylvania, priority 2019, dated 2026).
